Tests used:
CH12F3-2 cells = test: Cloning efficiency of single CH12F3-2 cells; format: cell-based, mouse; conditions: 14 days after single-cell dilution with cytokines to induce CSR to IgA, vs CH12F3-2 GFP
Excerpt: B cells must expand clonally while expressing AID during the GC reaction. Based on the results described above the inventors asked whether UNG deficiency might limit the proliferation capacity of transformed B-cells expressing AID. To assess the effect of UNG deletion on the proliferation of B-cells expressing AID, the inventors immunized WT and UNG-null mice with a T-dependent antigen to stimulate germinal center (GC) B-cell expansion and AID expression in vivo. The inventors used an AID-GFPtg reporter mouse that allows identifying AID+ GC B-cells in response to immunization ^6,28. […] This reduction was explained by the ˜3-fold smaller average GC size in Ung^−/− versus Ung^+/+ AID-GFPtg mice, rather than any difference in the number of GC (FIGS. 10C-D). […] However, it must be noted that at variance with immunization, which stimulates a few B-cells that need to undergo clonal expansion to form the GC, stimulation in vitro with cytokines causes massive proliferation accompanied by a high level of spontaneous cell death, which likely obscures the additional increase due to UNG-deficiency (not shown). To address this limitation, the inventors evaluated the cloning efficiency of single B-cells. […]

UNG = target: T1, UNG (Mus musculus, UniProt P97931); test: UNG activity assay with CH12F3 cell extracts; format: biochemical; conditions: CH12F3 Ugi cell extracts
T1 construct: endogenous in cells; host or cells: CH12F3 (CH12F3-2) mouse B lymphoma cells, with or without retrovirally expressed Ugi and shRNAs; sonicated whole-cell extract
T1 sequence (P97931 whole entry): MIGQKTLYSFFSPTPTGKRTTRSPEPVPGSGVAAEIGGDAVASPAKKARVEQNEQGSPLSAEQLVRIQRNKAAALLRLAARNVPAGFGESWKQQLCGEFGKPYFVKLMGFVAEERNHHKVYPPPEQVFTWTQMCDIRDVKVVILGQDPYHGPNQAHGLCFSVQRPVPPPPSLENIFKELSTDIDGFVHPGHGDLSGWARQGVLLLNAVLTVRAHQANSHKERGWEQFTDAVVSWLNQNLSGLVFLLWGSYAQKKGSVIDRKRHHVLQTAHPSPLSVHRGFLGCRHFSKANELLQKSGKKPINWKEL
Procedure: UNG activity assay was performed as previously described ^69 with minor modifications. Briefly, exponentially growing cells were washed in 1X PBS buffer, resuspended in HED buffer (25 mM Hepes, 5 mM EDTA, 1 mM dithiothreitol and 10% glycerol at pH 7.8) with complete protease inhibitors (Roche) and lysed by sonication (five pulses of 30 seconds) in a Bioruptor™ (Diagenode). After centrifugation at 14,000 rcf for 20 min at 4° C., the supernatant was frozen in aliquots into liquid nitrogen and stored at […]. UNG assays were carried out in HED buffer by mixing 10 μg of cell extract with 1 pmol of fluorescein-labeled oligonucleotide substrate in a final volume of 10 μl for 3 hours at 37° C. The double-stranded oligonucleotide with a single dU/dG mismatch was made by annealing 5′-[…](SEQ ID NO: 45)-fluorescein (FITC) to the complementary oligonucleotide, 5′-[…]-3′(SEQ ID NO: 46). The reaction was terminated by the addition of 10 UI of formamide loading dye and the products were resolved on 15% TBE-urea polyacrylamide gels. The apyrimidinic endonuclease (APE) activity present in the extracts was sufficient to cleave all the abasic substrate generated by UNG during the reaction. The FITC signal of the reaction products was visualized using a Typhoon Phosphorlmager™ (GE Healthcare).

CH12F3 cells [1] = test: ChIP for DNA damage marker at the telomeres; format: cell-based, mouse; conditions: CH12F3 Ugi vs CH12F3 GFP
Procedure: ChIPs to evaluate interaction with the telomeric chromatin or the Ig locus were performed as described previously ^39,61. Briefly, cells were cross-linked with 1% formaldehyde for 20 min at room temperature and reaction was stopped by addition of glycine to 125 mM final concentration. Cells were washed twice with cold PBS, harvested and kept at −80° C. O.N. Samples were resuspended in RIPA buffer (150 mM NaCl, 1% [v/v] Igepal CA-630, 0.5% [w/v] Sodium Deoxycholate, 0.1% [w/v] SDS, 50 mM Tris-HCl at pH 8, 5 mM EDTA, protease and phosphatase inhibitors) and sonicated to generate DNA fragments <500 bp using a Bioruptor™ Next Gen (Diagenode).
In order to increase the sensitivity of the ChIP assays and evaluate the presence of AID at the telomeres we performed the immunoprecipitations with fractions enriched in crosslinked chromatin. For this goal B cells fixed with 1% formaldehyde as described above were resuspended in RIPA buffer, sonicated during 90 seconds using a Bioruptor™ Next Gen (Diagenode), and the lysates were then spun down briefly (2000g, for 5 min at 4 C) to remove debris. […] Samples were then clarified by centrifugation at 20,000 RPM (4° C.) and their protein content was measured using the BCA method (Biorad). […]

CH12F3 cells [2] = test: Proliferation of CH12F3 cells after CSR stimulation (cell number, CFSE dilution); format: cell-based, mouse; conditions: CH12F3 Ugi cells stimulated for CSR; prevented by AID knockdown
Procedure: B cell lymphoma cells, CH12F3-2 cells, were cultured in RPMI medium supplemented with 10% FBS, 0.05% 2- mercaptoethanol and 5% NCTC 109 (Sigma). CH12F3-2 cells stably expressing Ugi were obtained by retroviral delivery using pMIG vector as described before ^39. Class switching induction to IgA in CH12F3-2 cells was performed as previously published ^39. CSR to IgA in CH12F3-2 cells was determined with an Accuri C6™ Flow Cytometer (BD Biosciences). Mouse B cells were purified from freshly isolated splenocytes using anti-CD43 magnetic beads as described ^70. CSR was induced using 5 ? g/ml LPS (Sigma) and 20 ng/ml IL-4 (Preprotech). Cells were harvested for ChIP or metaphase spreads and FISH at 24 h post stimulation.

B1: Ugi: Uracil Glycosylase Inhibitor of Bacillus subtilis bacteriophage PBS1/PBS2, small protein (9.5 kDa), SEQ ID NO: 29; expressed in cells by retroviral delivery (protein)
chain: MTNLSDIIEKETGKQLVIQESILMLPEEVEEVIGNKPESDILVHTAYDESTDENVMLLTSDAPEYKPWALVIQDSNGENKIKML
modifications: bacillus subtilis
notes: expressed in cells by retroviral delivery
CH12F3-2 cells
  cloning capacity: significant decrease in the cloning capacity
UNG
  UNG activity: lacked UNG activity
CH12F3 cells [1]
  phospho-ser129-H2AX at the telomeres: AID-dependent accumulation of phospho-ser129-H2AX
CH12F3 cells [2]
  growth (total cell number or CFSE dilution assay): reduced growth

— patent publication US20180221438A1, “MODULATING URACIL-DNA GLYCOSYLASE AND USES THEREOF” (Adaerata Limited Partnership, priority 2015, published 2018)
